Laboratory results published in publication doi:10.1101/2022.05.16.492129, “Cachd1 is a novel Frizzled- and LRP6-interacting protein required for neurons to acquire left-right asymmetric character” (bioRxiv, 2022).

B1: mouse Cachd1 extracellular domain (CACHD1ECD) (domain or fragment)
chain: DADFSILDEAQVLASQMRRLAAEELGVVTMQRIFNSLVYTEKISNGESEVQQLAKKIREKFNRYLDVVNRNKQVVEASYTAHLTSPLTAIQDCCTIPPSMMEFDGNFNTNVSRTVSCDRLSTTVNSRAFNPGRDLNSVLADNLKSNPGIKWQYFSSEEGIFTVFPAHKFRCKGSYEHRSRPIYVSTVRPQSKHIVVILDHGASVTDTQLQIAKDAAQVILSAIDEHDKISVLTVADAVRTCSLDQCYKTYLSPATSETKRKMSTFVSSVKPSDSPTQHAVGFHRAFQLIRSTSNSTRFQANTDMVIIYLSAGITSKDSSEEDKKATLRVINEENGFLNNSVMILTYALMNDGVTGLKELAFLRDLAEQNSGKYGIPDRTALPVIKGSMMVLNQLSNLETTVGRFYTNLPNRMIDEAVFSLPFSDEMGDGLIMTVSKPCYFGNLLLGIVGVDVNLAYILEDVTYYQDSLASYTFLIDDKGYTLMHPSLTRPYLLSEPPLHTDIIHYENIPKFELVRQNILSLPLGSQIITVPVNSSLSWHINKLRETGKEAYNVSYAWKMVQDTSFILCIVVIQPEIPVKQLKNLNTVPSSKLLYHRLDLLGQPSACLHFKQLATLESPTVMLSAGSFSSPYEHLSQPETKRMVEHYTAYLSDNTRLIANPGLKFSVRNEVMATSHVTDEWMTQMEMSSLNTYIVRRYIATPNGVLRIYPGSLMDKAFDPTRRQWYLHAVANPGLISLTGPYLDVGGAGYVVTISHTIHSSSTQLSSGHTVAVMGIDFTLRYFYKVLMDLLPVCNQDGGNKIRCFIMEDRGYLVAHPTLVDPKGHAPLEQQHITHKEPLVANDILNHPNFVKKNLCNSFSDRTVQRSYKFNTSLVGDLTNLVHGSHCSKYRLTRIPGTNAFVGIVNETCDSLAFCACSMVDRLCLNCHRMEQNECECPCECPLEVNECTGNLTNAENRNPSCEVHQEPVTYTAIDPGLQDALQQCVNSRCNQRMESGDCFGVLDCEWCVVDSDGKTHLDKSYCAPQKECFGGIVGAKSPYVDDMGAIGDEVITLNMIKS
notes: mouse Cachd1 extracellular domain, residues D50-S1107, in pNeoSec; also called mouse CACHD1ECD; source: deglycosylated with EndoF1 before crystallisation

What was measured:
Conditions in all cases: both partners purified
[1] = biological target: human FZD7 cysteine rich domain (FZD7CRD), biotinylated, for SPR (human, UniProt O75084 33-170, biotin); test: SPR; biotinylated FZD CRDs or LRP6 fragments immobilised (about 500-1,000 RU) on an SA sensor chip, CACHD1ECD as analyte at 100 μL/min; Biacore S200, 25 °C, 10 mM HEPES pH 7.5, 150 mM NaCl, 0.005% Tween 20; equilibrium response fitted to a one-site saturation binding model
[2] = biological target: B1; test: as above
[3] = biological target: B1; test: crystal structure; ternary complex: Cachd1ECD mixed with equal molar FZD5CRD and LRP6 P3E3P4E4; 0.1 M calcium acetate, 0.1 M sodium acetate pH 4.5, 10% (w/v) PEG 4000; 4.7 Å

B1
Kd [1]: 14200 nM

B2: human FZD8 cysteine rich domain (FZD8CRD), biotinylated, for SPR (domain or fragment, UniProt Q9H461 28-158, looked up)
chain: ASAKELACQEITVPLCKGIGYNYTYMPNQFNHDTQDEAGLEVHQFWPLVEIQCSPDLKFFLCSMYTPICLEDYKKPLPPCRSVCERAKAGCAPLMRQYGFAWPDRMRCDRLPEQGNPDTLCMDYNRTDLTT
modifications: biotin
notes: human FZD8 CRD, residues A28-T158, synthesised (Genscript); also called human FZD8CRD; source: HEK293T, co-transfected with a BirA-ER plasmid
Kd [2]: 950 nM

B3: human LRP6 P3E3P4E4 (membrane proximal fragment), biotinylated, for SPR (domain or fragment, UniProt O75581 629-1244, looked up)
chain: VPEAFLLFSRRADIRRISLETNNNNVAIPLTGVKEASALDFDVTDNRIYWTDISLKTISRAFMNGSALEHVVEFGLDYPEGMAVDWLGKNLYWADTGTNRIEVSKLDGQHRQVLVWKDLDSPRALALDPAEGFMYWTEWGGKPKIDRAAMDGSERTTLVPNVGRANGLTIDYAKRRLYWTDLDTNLIESSNMLGLNREVIADDLPHPFGLTQYQDYIYWTDWSRRSIERANKTSGQNRTIIQGHLDYVMDILVFHSSRQSGWNECASSNGHCSHLCLAVPVGGFVCGCPAHYSLNADNRTCSAPTTFLLFSQKSAINRMVIDEQQSPDIILPIHSLRNVRAIDYDPLDKQLYWIDSRQNMIRKAQEDGSQGFTVVVSSVPSQNLEIQPYDLSIDIYSRYIYWTCEATNVINVTRLDGRSVGVVLKGEQDRPRAVVVNPEKGYMYFTNLQERSPKIERAALDGTEREVLFFSGLSKPIALALDSRLGKLFWADSDLRRIESSDLSGANRIVLEDSNILQPVGLTVFENWLYWIDKQQQMIEKIDMTGREGRTKVQARIAQLSDIHAVKELNLQEYRQHPCAQDNGGCSHICLVKGDGTTRCSCPMHLVLLQDELSCG
modifications: biotin
notes: human LRP6 P3E3P4E4 domains, residues V629-G1244; also called 3-4; source: HEK293T, co-transfected with a BirA-ER plasmid
Kd [2]: 170 nM

B4: human LRP6 P3E3P4E4, for crystallography (domain or fragment, UniProt O75581 629-1244, looked up)
chain: VPEAFLLFSRRADIRRISLETNNNNVAIPLTGVKEASALDFDVTDNRIYWTDISLKTISRAFMNGSALEHVVEFGLDYPEGMAVDWLGKNLYWADTGTNRIEVSKLDGQHRQVLVWKDLDSPRALALDPAEGFMYWTEWGGKPKIDRAAMDGSERTTLVPNVGRANGLTIDYAKRRLYWTDLDTNLIESSNMLGLNREVIADDLPHPFGLTQYQDYIYWTDWSRRSIERANKTSGQNRTIIQGHLDYVMDILVFHSSRQSGWNECASSNGHCSHLCLAVPVGGFVCGCPAHYSLNADNRTCSAPTTFLLFSQKSAINRMVIDEQQSPDIILPIHSLRNVRAIDYDPLDKQLYWIDSRQNMIRKAQEDGSQGFTVVVSSVPSQNLEIQPYDLSIDIYSRYIYWTCEATNVINVTRLDGRSVGVVLKGEQDRPRAVVVNPEKGYMYFTNLQERSPKIERAALDGTEREVLFFSGLSKPIALALDSRLGKLFWADSDLRRIESSDLSGANRIVLEDSNILQPVGLTVFENWLYWIDKQQQMIEKIDMTGREGRTKVQARIAQLSDIHAVKELNLQEYRQHPCAQDNGGCSHICLVKGDGTTRCSCPMHLVLLQDELSCG
notes: human LRP6 P3E3P4E4 domains, residues V629-G1244
binding result [3]: binds

B5: human LRP6 P1E1P2E2 (membrane distal fragment), biotinylated, for SPR (domain or fragment, UniProt O75581 20-630, looked up)
chain: APLLLYANRRDLRLVDATNGKENATIVVGGLEDAAAVDFVFSHGLIYWSDVSEEAIKRTEFNKTESVQNVVVSGLLSPDGLACDWLGEKLYWTDSETNRIEVSNLDGSLRKVLFWQELDQPRAIALDPSSGFMYWTDWGEVPKIERAGMDGSSRFIIINSEIYWPNGLTLDYEEQKLYWADAKLNFIHKSNLDGTNRQAVVKGSLPHPFALTLFEDILYWTDWSTHSILACNKYTGEGLREIHSDIFSPMDIHAFSQQRQPNATNPCGIDNGGCSHLCLMSPVKPFYQCACPTGVKLLENGKTCKDGATELLLLARRTDLRRISLDTPDFTDIVLQLEDIRHAIAIDYDPVEGYIYWTDDEVRAIRRSFIDGSGSQFVVTAQIAHPDGIAVDWVARNLYWTDTGTDRIEVTRLNGTMRKILISEDLEEPRAIVLDPMVGYMYWTDWGEIPKIERAALDGSDRVVLVNTSLGWPNGLALDYDEGKIYWGDAKTDKIEVMNTDGTGRRVLVEDKIPHIFGFTLLGDYVYWTDWQRRSIERVHKRSAEREVIIDQLPDLMGLKATNVHRVIGSNPCAEENGGCSHLCLYRPQGLRCACPIGFELISDMKTCIVP
modifications: biotin
notes: human LRP6 P1E1P2E2 domains, residues A20-P630; source: HEK293T, co-transfected with a BirA-ER plasmid
Kd [2]: 5860 nM

B6: mouse FZD5 cysteine rich domain (FZD5CRD), biotinylated, for SPR (domain or fragment, UniProt Q9EQD0 27-157, looked up)
chain: ASKAPVCQEITVPMCRGIGYNLTHMPNQFNHDTQDEAGLEVHQFWPLVEIHCSPDLRFFLCSMYTPICLPDYHKPLPPCRSVCERAKAGCSPLMRQYGFAWPERMSCDRLPVLGGDAEVLCMDYNRSEATT
modifications: biotin
notes: mouse Fzd5 cysteine rich domain, residues A27-T157, synthesised (Genscript); also called mouse FZD5CRD; source: HEK293T, co-transfected with a BirA-ER plasmid
Kd [2]: 480 nM
